B1: TSN (parent)
chain: AFVVYLETETLVTREAVTEILGIE

Variants of: B1
Experiment: protein stability index of a GFP-peptide fusion (GPS, HEK-293T) (PSI 1-6); higher = more stable
Settings: c terminus: a fixed tail appended
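Further: lentivirally expressed fusions sorted by FACS into six bins by GFP to DsRed ratio, PSI derived from sequencing read proportions per bin multiplied by bin number.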

Protein stability index of substitutions, site by site:
E15: S 2.65; H 1.85; F 3.13; Y 2.25; V 3.11; C 1.97; L 2.17; M 3.51; I 3.25; D 3.69
E7: S 1.76; K 2.63; H 3.41; Y 2.77; G 2.77; C 1.79; N 3.66; P 2.19; I 3.57; A 3.23; W 3.69; T 2.4; Q 3.51; D 3.68; L 2.42
L21: E 1.97; W 2.52; C 2.36; G 2.44; P 2.34; I 2.57; Y 2.1; N 2.64; S 2.04; A 3.48; V 3.75
V3: K 1.81; Y 2.86; D 2.37; R 1.34; M 1.97; F 1.99; H 2.3; G 1.67; P 2.89; S 1.15; E 1.9; N 2.37; Q 2.75; L 2.35; T 3.95; A 2.32
F2: N 2.45; Q 1.86; H 1.48; S 2.36; G 1.88; Y 2.83; V 1; I 2.72; K 1.78; P 3.41; T 2.74; E 2.49; D 3.68; R 1.72; A 1.97; M 2.88; W 1.84; L 2.25
A1: L 3.38; R 4.12; T 2.55; G 3.71; D 1.74; I 3.49; F 3.77; H 2.54; P 2.44; N 3.19; K 2.54; M 2.61; W 2.42; Q 2.11; C 2.64; S 2.71; E 3.39
A16: N 1.96; W 3.37; S 3.05; F 3.01; Q 2.67; Y 2.47; P 3.89; E 2.77; T 2.66; V 3.75; M 2.01; D 1.97; C 3.53
E19: I 2.11; P 2.44; Q 3.48; S 1.96; C 3.83; F 2.17; K 3.64; N 3.7; R 3.43; H 2.31; L 3.65; V 3.19; W 2.4
R14: A 3.41; N 4.51; M 4.2; P 2.84; C 3.25; E 1.43; T 2.48; F 2.36; S 1.54; H 3.6; D 2.33; Y 2.01; K 4.19
L6: K 2.03; Q 1.84; E 2.25; G 1.77; S 1.83; I 3.08; R 1.24; H 1.37; A 1.34; V 4.67; Y 2.2; F 3.12; C 2.38; N 2.69; T 2.05; P 1.85; D 2
G22: N 2.33; E 2.82; Y 3.71; K 1.74; D 3.2; P 2.86; F 3.47; V 2.04; S 1.86; A 3.71; R 3.49; H 3.32
V4: C 2.2; D 2.41; H 2.19; S 1.57; T 1.13; A 2.54; E 2.07; Y 2.61; W 2.92; N 2.09; R 1.45; K 1.56

Reference: the supplement of paper PMC10567573
